Data taken from PMC12098869, “An mRNA-display derived cyclic peptide scaffold reveals the substrate binding interactions of an N-terminal cysteine oxidase” (Nature Communications, 2025).

B1: RGS5_(2-15), synthetic peptide corresponding to the methionine excised N-terminus of RGS5, residues 2 to 15 [human] / 2-aminoethanethiol dioxygenase (ADO), full-length human, N-terminally His-tagged and biotinylated (pQE80L-Navi-ADO) … (parent complex)
chain 1: CKGLAALPHSCLER
chain 2: MPRDNMASLIQRIARQACLTFRGSGGGRGASDRDAASGPEAPMQPGFPENLSKLKSLLTQLRAEDLNIAPRKATLQPLPPNLPPVTYMHIYETDGFSLGVFLLKSGTSIPLHDHPGMHGMLKVLYGTVRISCMDKLDAGGGQRPRALPPEQQFEPPLQPREREAVRPGVLRSRAEYTEASGPCILTPHRDNLHQIDAVEGPAAFLDILAPPYDPDDGRDCHYYRVLEPVRPKEASSSACDLPREVWLLETPQADDFWCEGEPYPGPKVFP

Variants of: B1
Test: SPR; parent: 1; read off a plot

Variant	ratio to parent
chain 2 Y87A	~9
chain 2 F101A	~74
